Article PMC2141705

Molecular target: calnexin (mouse (endogenous in AtT-20)) (UniProt P35564)
Test: co-IP

Chain of UniProt P35564 (P35564 21-591): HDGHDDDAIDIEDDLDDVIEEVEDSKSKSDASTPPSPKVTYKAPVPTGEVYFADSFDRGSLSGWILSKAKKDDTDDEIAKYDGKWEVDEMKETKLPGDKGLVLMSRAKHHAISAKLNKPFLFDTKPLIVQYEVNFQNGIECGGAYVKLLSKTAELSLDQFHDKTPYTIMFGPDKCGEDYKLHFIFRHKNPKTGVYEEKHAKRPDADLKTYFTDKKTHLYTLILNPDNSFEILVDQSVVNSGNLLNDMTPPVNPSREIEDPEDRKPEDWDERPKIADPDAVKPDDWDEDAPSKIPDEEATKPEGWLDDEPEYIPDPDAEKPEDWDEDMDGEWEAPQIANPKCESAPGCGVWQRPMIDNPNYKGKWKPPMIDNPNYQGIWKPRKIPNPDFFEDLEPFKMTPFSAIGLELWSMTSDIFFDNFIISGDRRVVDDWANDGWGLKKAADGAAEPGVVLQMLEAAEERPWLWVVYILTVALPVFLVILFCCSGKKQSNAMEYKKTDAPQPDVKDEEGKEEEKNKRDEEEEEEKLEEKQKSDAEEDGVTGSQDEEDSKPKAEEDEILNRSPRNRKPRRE

percent of total radiolabeled proPC2 coimmunoprecipitated: 5%
Substance: proPC2 (proenzyme form of prohormone convertase 2) (from UniProt P28841 25-637)
